Article PMC9307154

Molecular target: Bovine leukemia virus retropepsin (BLV-PR), mature recombinant protease (Bovine leukemia virus)
Test: enzyme kinetics (initial rate against enzyme concentration); dimer to monomers; BLV-PR 5-200 nM (as monomer) preincubated 15 min at 25°C in reaction buffer (250 mM phosphate pH 5.6, 500 mM NaCl, 10 mM EDTA, 5 mM DTT, 1% glycerol, 1% DMSO), then 1 uM MA-CA fluorogenic substrate, 37°C, rate of the first 3 min, fit of quadratic Eq 1

For “Bovine leukemia virus retropepsin (BLV-PR), mature recombinant protease (enzyme)”, the Kd was 160 nM.
